Measurements from the supplement of paper PMC10567573.

B1: GNB5 (parent)
chain: YYPSGDAFASGSDDATCRLYDLRA
B2: CLINT1 (parent)
chain: VVTSAREHIYDLRSLENYHFVDEH

Variants of: B1
Experiment: protein stability index of a GFP-peptide fusion (GPS, HEK-293T) (PSI 1-6); higher = more stable
Conditions: c terminus: a fixed tail appended
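Further: lentivirally expressed fusions sorted by FACS into six bins by GFP to DsRed ratio, PSI derived from sequencing read proportions per bin multiplied by bin number.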

Protein stability index, by site and new letter:
G5: E 3.96, D 3.77, A 2.95, V 3.17, I 2.8, H 2.81, L 2.76, W 2.37, S 3.09, M 2.88, P 2.69, C 3.39, K 2.89, N 3.88, F 2.61, R 3.12, Q 2.7, T 3.56, Y 2.4
P3: W 2.32, L 2.31, D 3.46, G 3.33, Y 2, I 2, S 3.27, H 3.04, M 2.99, A 2.55, N 3.36, R 2.88, C 2.75, V 2.31, K 2.64, T 3.52, F 2.5, Q 3.21, E 4.01
Y2: G 2.26, R 3.66, V 2.02, A 1.79, E 4.83, M 2.48, L 3.34, P 3.16, W 1.75, S 2.18, N 3.55, C 2.09, H 2.69, T 1.96, D 4.29, I 2.25, K 4.08, F 2.03, Q 2.4
Y1: T 3.6, W 2.86, M 3.67, R 3.58, F 2.65, P 3.72, V 3.72, G 3.7, N 3.71, K 3.55, L 3.84, E 3.81, I 3.52, C 3.3, Q 3.81, H 3.95, S 3.99, D 4.09, A 3.83
F8: Q 3.71, I 3.42, H 4.09, L 3.6, S 4.11, M 3.53, C 3.87, V 4.07, G 4.09, P 4.12, W 2.62, K 4.19, D 4.4, T 4.02, E 4.5, R 3.76, N 4.23, A 4.18, Y 2.61
S4: R 2.46, V 2.56, Y 2.82, E 3.72, I 2.8, W 2.49, N 3.03, L 2.52, F 2.29, Q 3.48, G 3.14, C 2.16, D 3.56, M 3.45, P 3.78, K 3.33, T 2.86, A 3.06, H 2.87
A9: N 2.65, Q 2.36, H 2.15, I 2.12, K 2.22, S 2.56, E 3.17, L 1.99, G 2.41, F 1.9, D 3.6, P 3.06, R 2.17, C 2.36, M 2.45
A7: M 2.47, N 2.73, K 2.52, S 2.39, W 1.66, E 3.1, H 2.58, C 2.31, T 2.71, Y 2.06, V 2.23, I 2.31, L 2.2, D 3.83, Q 2.65, P 2.5, F 1.77, R 3.1, G 3.47
D6: Q 1.83, R 1.91, L 2.06, A 2.31, T 2.13, M 1.92, Y 1.97, S 2.52, W 1.52, H 2.26, E 2.43, F 2.14, K 1.64, N 2.11, I 1.89, G 2.72, V 2.35, P 2.81, C 2.03

Variants of: B2
Experiment: as above
Conditions: c terminus: a fixed tail appended

Protein stability index of substitutions, site by site:
N17: W 1.96, T 2.67, R 2.95, C 2.35, S 2.18, G 2.81, E 2.96, V 2.14, D 3.52, A 2.95, Q 2.15, I 1.83, M 2.35, L 2.09, P 3.32, Y 1.97, K 2.63, F 1.86, H 2.45
D22: A 2.1, G 2.85, E 2.42, Q 2.59, V 2.3, M 1.66, L 1.57, K 2.49, W 3.21, P 2.58, S 2.31, N 2.35, Y 1.5, I 1.09, R 2.38, H 2.93, C 1.98, F 2.2, T 1.75
H19: W 1.6, N 3.09, G 3.16, K 4.3, S 3.21, P 3, E 3.8, Q 3.12, L 2.68, M 2.4, V 2.11, I 2.41, D 3.99, F 2.26, Y 2.55, C 2.33, A 2.03, T 3.28, R 3.52
E23: A 2.64, M 1.9, C 1.64, V 2.07, N 1.96, W 3.37, Q 2.55, K 2.33, G 3.21, P 1.96, T 2.2, R 1.72, I 2.54, L 1.93, H 2.21, S 2.36, D 2.86, Y 1.26, F 2.51
V21: Q 3.25, D 3.74, C 2.78, L 2.82, Y 2.47, T 2.84, H 2.98, G 3.49, P 3.38, A 3.44, N 3.44, R 2.54, M 2.54, S 2.96, I 2.52, W 2.54, F 2.48, E 3.79, K 2.53
H24: G 3.55, T 3.11, W 2.98, R 2.78, M 2.92, Y 2.32, A 2.85, V 2.38, K 3.21, C 2.3, F 2.58, I 2.35, E 4.04, L 2.22, D 4.13, P 2.79, S 3.44, N 3.5, Q 3.39
F20: S 3.79, M 3.26, W 2.58, V 3.71, Q 3.73, K 3.33, T 2.99, P 3.96, I 3.43, Y 3.24, G 3.54, C 3.46, A 4.11, L 4.22, R 3.24, E 3.97, D 4.77, N 3.77, H 3.57
Y18: A 3.65, N 4.48, D 4.14, V 3.24, E 4.26, H 3.59, F 2.5, T 3.94, Q 3.87, W 2.94, C 3.3, G 3.78, L 2.94, I 3, M 2.88, K 3.6, S 4.05, R 3.72, P 3.71
E16: M 3.01, H 2.26, L 2.47, V 2.36, N 2.62, R 2.43, W 1.83, Y 1.56, T 2.46, I 2.12, P 3.32, G 2.11, K 2.59, Q 2.38, S 2.67
